Test system: MS2 coat protein
Assay: apparent KD of MS2 coat protein; designed switch direction (-1 OFF switch, 1 ON switch): -1; higher = weaker reporter binding
Summary of the method: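 Designed RNA switches with common flanks were made on Illumina chips by stalled E. coli RNA polymerase. Titration with SNAP-549-labelled MS2 coat protein doubled from 0.7 or 1.5 nM up to 3 µM. Apparent KD is each design's median over clusters after curve-fitting normalised fluorescence.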

[1] = Eterna round: R95, input ligand: FMN 200 uM
[2] = Eterna round: R95, input ligand: microRNA oligo, concentration not stated
[3] = Eterna round: R95, input ligand: none
[4] = input ligand: microRNA oligo, concentration not stated

CUGGUCCGAGGAUAUAUGAUGUGAAACAUGAGGAUCACCCAUGUAAUAUUAUGGAUGUAAAUAGAAGGCGGACUAG [JL-ex5-3.08] (puzzle: Exclusion 5)
apparent KD of MS2 coat protein [1]: 0.0378 µM | apparent KD of MS2 coat protein [2]: 0.0339 µM | apparent KD of MS2 coat protein [3]: 0.0742 µM

CUGGUCCGAGGAUAUAUUAUGUGAAACAUGAGGAUCACCCAUGUUAUAUAAUGGAUGUAAAUAGAAGGCGGACUAG [Mat - Exclusion 5 - JL mod - D62] (puzzle: Exclusion 5)
apparent KD of MS2 coat protein [1]: 0.0277 µM | apparent KD of MS2 coat protein [2]: 0.0255 µM | apparent KD of MS2 coat protein [3]: 0.0282 µM

CUGGUCCGAGGAUAUAUUAUGUGAUACAUGAGGAUCACCCAUGUUAUAUGAUGGAUAUUAAUAGAAGGCGGACUAG [Mat - Exclusion 5 - JL mod - D73] (puzzle: Exclusion 5)
apparent KD of MS2 coat protein [1]: 0.0855 µM | apparent KD of MS2 coat protein [2]: 0.0715 µM | apparent KD of MS2 coat protein [3]: 0.0839 µM

CUGGUCCGAGGAUAUUUUAUGUGAUACAUGAGGAUCACCCAUGUUAUAUGAUGGAUGUUAAAAGAAGGCGGACUAG [Mat - Exclusion 5 - JL mod - D80] (puzzle: Exclusion 5)
apparent KD of MS2 coat protein [1]: 0.077 µM | apparent KD of MS2 coat protein [2]: 0.102 µM | apparent KD of MS2 coat protein [3]: 0.114 µM

CUGGUGUGAGGAUAUCAAAGACCUCGGGAUAGUAGCGAGGAUGAGAAGGCACAUGAGGAUCACCCAUGUAACAA [Edmaer] (puzzle: Exclusion 4)
apparent KD of MS2 coat protein [2]: 0.0212 µM

CUGGUUGUCGAGGAUAUGCACCGGCUCGCUGACGCAGAAGGCGACACAUGAGGAUCACCCAUGUCGGUUCGCGU [salish99_ex6_r004_438] (Eterna round: R97, puzzle: Exclusion 6)
apparent KD of MS2 coat protein (input ligand: FMN 200 uM): 0.029 µM | apparent KD of MS2 coat protein (input ligand: none): 0.0191 µM

CUGUACAUAGGAUAUAGUUGUUUUUACAUGAGGAUCACCCAUGUUACUCCUCUCUCUCUUCUAGAAGGAUGUUUUU [JR_E5_Sub007] (Eterna round: R96, puzzle: Exclusion 5)
apparent KD of MS2 coat protein (input ligand: FMN 200 uM): 0.0707 µM | apparent KD of MS2 coat protein [4]: 0.0507 µM | apparent KD of MS2 coat protein (input ligand: none): 0.067 µM

CUGUACAUAGGAUAUAGUUGUUUUUACAUGAGGAUCACCCAUGUUACUCCUCUCUCUCUUCUAGAAGGAUGUUUUU [JR_E5_Sub007] (puzzle: Exclusion 5)
apparent KD of MS2 coat protein [2]: 0.0781 µM

CUGUACUGAGGAUAUACAUGAGGAUCACCCAUGUUCCAAGGCUAGGAAACUAGCAAAGGUAGAAGGCAGUACAG [Mat - Exclusion 3 - Eli Mod - D67] (Eterna round: R97, puzzle: Exclusion 3)
apparent KD of MS2 coat protein (input ligand: FMN 200 uM): 0.215 µM | apparent KD of MS2 coat protein (input ligand: none): 0.0178 µM

CUGUCCCAAGGAUAUACAUCAGUCCCAGGGUGCCGCAUAAGACAUGAGGAUCACCCAUGUAGAAGGUGGAGACC [Esaranre] (puzzle: Exclusion 2)
apparent KD of MS2 coat protein [2]: 0.0821 µM

CUGUGCAUAGGAUAUGAAAGAAGAAACAUGAGGAUCACCCAUGUAGCCUCAAAUCUUAUGUCAGAAGGAUGCGUUA [Default title] (Eterna round: R97, puzzle: Exclusion 5)
apparent KD of MS2 coat protein (input ligand: FMN 200 uM): 0.0159 µM | apparent KD of MS2 coat protein (input ligand: none): 0.0136 µM

CUGUUUGUAGGAUAUACAUGCGGAACCCUCCUCGUGUGAAGACAUGAGGAUCACCCAUGUAGAAGGACGAGGAG [Angeer] (Eterna round: R97, puzzle: Exclusion 2)
apparent KD of MS2 coat protein (input ligand: FMN 200 uM): 0.016 µM | apparent KD of MS2 coat protein (input ligand: none): 0.0163 µM

CUGUUUUUCGCAGGAUAUGCUCCUCCUUUAUUAGCAGAAGGGCGUUAAACAUGAGGAUCACCCAUGUAUGGUAAUGACAUUUUC [JR_ExcNG1_Sub062] (Eterna round: R96, puzzle: Exclusion NG 1)
apparent KD of MS2 coat protein [4]: 0.0298 µM

CUGUUUUUCGCAGGAUAUGCUCCUCCUUUAUUUGCAGAAGGGCGUUAAACAUGAGGAUCACCCAUGUAUGGUAAUGACUUUUUC [JR_ExcNG1_Sub064] (Eterna round: R96, puzzle: Exclusion NG 1)
apparent KD of MS2 coat protein [4]: 0.0169 µM

CUUAAAAGGAAGGAUAUGCUAGACGAAAGUCUAGCAGAAGGUCCUACAUGAGGAUCACCCAUGUGUCCUGUAAG [Mat - Exclusion 6 - Eli Mod - D41] (Eterna round: R97, puzzle: Exclusion 6)
apparent KD of MS2 coat protein (input ligand: FMN 200 uM): 0.0956 µM | apparent KD of MS2 coat protein (input ligand: none): 0.0539 µM

CUUAAACAUGAGGAUCACCCAUGUGAGGAUAUGAUGCGAAUAAAGAAAGAAGAAAGCAUCAGAAGGCACAUAUG (Eterna round: R96, puzzle: Exclusion 1)
apparent KD of MS2 coat protein [4]: 0.0659 µM

CUUAAGGCAGGAUAUGCUUUUUGUGACAUGAGGAUCACCCAUGUGAUGCAGUUUGGGUGUGCAGAAGGGCCUGAGU [JR_E5_Sub033] (puzzle: Exclusion 5)
apparent KD of MS2 coat protein [2]: 0.378 µM

CUUACACAUGAGGAUCACCCAUGUGAGGAUAUGCGUACGUUGUCCGUAGGCGACGUGCGCAGAAGGCGCUUGGU [JL-ex1-3.19 Eli mod] (puzzle: Exclusion 1)
apparent KD of MS2 coat protein [2]: 0.0553 µM

CUUAGACAUGAGGAUCACCCAUGUGAGGAUAUGAAAUUAAUUAAGUAUGAAGUAUGAAUCAGAAGGCACAUAUG [Mat - Mod of Hyphema D34] (puzzle: Exclusion 1)
apparent KD of MS2 coat protein [1]: 0.0617 µM | apparent KD of MS2 coat protein [2]: 0.0921 µM | apparent KD of MS2 coat protein [3]: 0.0816 µM

CUUAGCCUAAAAUCACGCAAGCUUUUUACUUGUCUUAAGACAUGAGGAUCACCCAUGUCCGGGCUGAACUUAUGGAA [Zaortequ] (puzzle: Sensor v3, turn-off variant 2)
apparent KD of MS2 coat protein [1]: 0.0212 µM | apparent KD of MS2 coat protein [2]: 0.269 µM | apparent KD of MS2 coat protein [3]: 0.0214 µM

CUUAUGUGAGGAUAUCAGUAGUGAUACGAUAGUAUUACUGCUGAGAAGGCACAUGAGGAUCACCCAUGUUCCUC [Exclusion 4 - Mod Omei Ex4 344 mod 4 v.2] (puzzle: Exclusion 4)
apparent KD of MS2 coat protein [2]: 0.0916 µM

CUUAUGUGAGGAUAUGCCUGGCCGUGAGGCCAAAUUGAUUAGCAGAAGGCACAUGAGGAUCACCCAUGUGCGGG [jl-ex4-4.67 ViennaUCT mod] (Eterna round: R97, puzzle: Exclusion 4)
apparent KD of MS2 coat protein (input ligand: FMN 200 uM): 0.34 µM | apparent KD of MS2 coat protein (input ligand: none): 0.479 µM

CUUCAAGCACCAGAGCUCACACUUAUACCUGCUCUGGUGACAUGAGGAUCACCCAUGUUUUUUGCCCGUCUUAUCUU [Sensor v3, turn-off variant 2 (MOD of Leso v.2)] (Eterna round: R96, puzzle: Sensor v3, turn-off variant 2)
apparent KD of MS2 coat protein (input ligand: FMN 200 uM): 0.178 µM | apparent KD of MS2 coat protein [4]: 0.101 µM | apparent KD of MS2 coat protein (input ligand: none): 0.25 µM

CUUCAAGCACCAGAGCUCACACUUAUACCUGCUCUGGUGACAUGAGGAUCACCCAUGUUUUUUGCCCGUCUUAUCUU [Sensor v3, turn-off variant 2 (MOD of Leso v.2)] (puzzle: Sensor v3, turn-off variant 2)
apparent KD of MS2 coat protein [1]: 0.0928 µM | apparent KD of MS2 coat protein [2]: 0.276 µM | apparent KD of MS2 coat protein [3]: 0.115 µM

CUUCACCCACUAGAGCUCACCCACAAACCUACUCUAGUGACAUGAGGAUCACCCAUGUUUUUUGCCCGUCUUAUCUU [Qugeenerce] (puzzle: Sensor v3, turn-off variant 2)
apparent KD of MS2 coat protein [1]: 0.0402 µM | apparent KD of MS2 coat protein [2]: 0.184 µM | apparent KD of MS2 coat protein [3]: 0.0414 µM

CUUCGACAUGAGGAUCACCCAUGUCAGGAUAUUGUGUAUCGGGUGUUGGACGGAUAGGCAAGAAGGGAUGUGUG [LRO-Excl1-05] (puzzle: Exclusion 1)
apparent KD of MS2 coat protein [2]: 0.0278 µM

CUUCUCAGAGUCAGGAUAUAGUCGAAAGGGCUAGACUAGAAGGGACAUGAGGAUCACCCAUGUAAAAUAUCAAA [Razalequ] (puzzle: Brourd's mod of Exclusion 4)
apparent KD of MS2 coat protein [2]: 0.0204 µM

— the supplement of paper PMC9170038
